Laboratory results taken from patent publication US20250011363A1, “OPTIMIZED SHORTENED PEPTIDE THAT BINDS TO ACETYLCHOLINE RECEPTOR, AND USE THEREOF” (SKINMED CO., LTD., priority 2021, published 2025).

What follows are substances tested against acetylcholine receptor (Homo sapiens, UniProt P02708) (assay: SPR binding affinity (RU) of optimized 5mer/6mer/7mer peptides, Examples 6-7). Conditions: 6mer-1 Top sequence; SPR; peptides tested at 10 μM.
In short: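 Using surface plasmon resonance, binding to the acetylcholine receptor was measured for each sequence at a single 10 μM concentration. Values are response units.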

Sequence of acetylcholine receptor (P02708 21-457): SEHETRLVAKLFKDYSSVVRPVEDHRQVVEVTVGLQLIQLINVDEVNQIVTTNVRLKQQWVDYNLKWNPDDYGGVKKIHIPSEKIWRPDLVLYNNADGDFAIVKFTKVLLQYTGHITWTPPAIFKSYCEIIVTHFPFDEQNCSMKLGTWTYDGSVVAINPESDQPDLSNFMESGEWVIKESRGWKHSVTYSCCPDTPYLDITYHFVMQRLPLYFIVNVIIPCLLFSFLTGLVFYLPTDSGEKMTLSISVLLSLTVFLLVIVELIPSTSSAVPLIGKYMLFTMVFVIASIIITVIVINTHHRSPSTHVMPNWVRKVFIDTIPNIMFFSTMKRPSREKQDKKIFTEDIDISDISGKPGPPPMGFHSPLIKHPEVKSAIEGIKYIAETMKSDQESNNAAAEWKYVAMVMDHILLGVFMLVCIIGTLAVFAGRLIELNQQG

Row | Substance | Binding affinity [Ru]
1 | 6mer-1-243 (KKWYLR) | 136
2 | 6mer-1-238 (KKGQQK) | 154
3 | 6mer-1-333 (RKRQSR) | 135
4 | 6mer-1-336 (KRVVTK) | 154
5 | 6mer-1-359 (KRQFLR) | 131
6 | 6mer-1-277 (KKGLCR) | 141
7 | 6mer-1-256 (KRVRTK) | 125
8 | 6mer-1-353 (KRLYLK) | 126

Same assay, conditions: 6mer-2 Top sequence; SPR; peptides tested at 10 μM

Row | Substance | Binding affinity [Ru]
9 | 6mer-2-108 (RVVYKK) | 153
10 | 6mer-2-161 (KWRRKK) | 154
11 | 6mer-2-11 (RQYQRR) | 121
12 | 6mer-2-171 (RQQTRR) | 139
13 | 6mer-2-104 (RGVCRK) | 145
14 | 6mer-2-68 (KGRRRK) | 142
15 | 6mer-2-137 (KVFCKK) | 135

Same assay, conditions: SPR, Resonance Units; 5mer Bottom sequence (bottom combinations); peptides tested at 10 μM

Row | Substance | Binding affinity [Ru]
16 | 5mer-741 (KPTPR) | 14
17 | 5mer-1071 (RYEGR) | 16
18 | 5mer-603 (RKEPK) | 27
19 | 5mer-783 (KCKVR) | 29
20 | 5mer-1015 (RCWMK) | 30
21 | 5mer-1093 (REEDK) | 32
22 | 5mer-676 (RTMFR) | 18
23 | 5mer-601 (RFCFK) | 13
24 | 5mer-946 (KYPWR) | 32
25 | 5mer-680 (RFTER) | 21
26 | 5mer-720 (KDPKR) | 32
27 | 5mer-1096 (RPTDK) | 15

Same assay, conditions: SPR, Resonance Units; peptides tested at 10 μM; 6mer-1 Bottom sequence

Row | Substance | Binding affinity [Ru]
28 | 6mer-1-1052 (KRHWIR) | 33
29 | 6mer-1-1063 (KKIDHK) | 25
30 | 6mer-1-1009 (RKMSKK) | 29
31 | 6mer-1-1190 (KKCMKR) | 29
32 | 6mer-1-1055 (KRCNDK) | 40
33 | 6mer-1-1182 (KKTCHR) | 35
34 | 6mer-1-1171 (RKIAFK) | 40

Same assay, conditions: SPR, Resonance Units; peptides tested at 10 μM; 6mer-1 Bottom sequence (Table 11)

Row | Substance | Binding affinity [Ru]
35 | 6mer-1-741 (RKEAGR) | 24
36 | 6mer-1-711 (RRATHR) | 19
37 | 6mer-1-607 (KKDHFR) | 22
38 | 6mer-1-751 (RRTNFK) | 27
39 | 6mer-1-729 (KKKSGK) | 23
40 | 6mer-1-635 (KKTTWK) | 33
41 | 6mer-1-653 (KRMTHR) | 15
42 | 6mer-1-797 (RRAWNK) | 22
43 | 6mer-1-704 (RRMCER) | 16

Same assay, conditions: SPR, Resonance Units; peptides tested at 10 μM; 6mer-2 Bottom sequence

Row | Substance | Binding affinity [Ru]
44 | 6mer-2-857 (KHTEKK) | 20
45 | 6mer-2-985 (REMNKR) | 34
46 | 6mer-2-913 (KFKNRR) | 25
47 | 6mer-2-721 (RHSKKK) | 26
48 | 6mer-2-702 (KEMIKR) | 18
49 | 6mer-2-861 (KDTDRK) | 21
50 | 6mer-2-962 (KKSNRK) | 30
51 | 6mer-2-653 (KIEMKR) | 20
52 | 6mer-2-622 (RYTNKR) | 13
53 | 6mer-2-707 (RTWKRK) | 21
54 | 6mer-2-946 (KPCEKK) | 21
55 | 6mer-2-688 (RPMFRK) | 13
56 | 6mer-2-903 (KKNPKK) | 40
57 | 6mer-2-810 (KHAKKK) | 18
58 | 6mer-2-753 (RYEHRR) | 18

Same assay, conditions: SPR, Resonance Units; peptides tested at 10 μM; 6mer-2 Top sequence

Row | Substance | Binding affinity [Ru]
59 | 6mer-2-405 (KGYRKK) | 137
60 | 6mer-2-444 (RQRLKK) | 141
61 | 6mer-2-455 (RWYSKR) | 135
62 | 6mer-2-527 (RGQTRR) | 145
63 | 6mer-2-590 (KGRLRK) | 148
64 | 6mer-2-463 (KLLTRR) | 124

Same assay, conditions: SPR, Resonance Units; peptides tested at 10 μM; 6mer-2 Top sequence (Table 12)

Row | Substance | Binding affinity [Ru]
65 | 6mer-2-301 (RQVRKR) | 122
66 | 6mer-2-396 (KWLQRR) | 122
67 | 6mer-2-338 (RSVQKR) | 145
68 | 6mer-2-340 (RRLTRR) | 122
69 | 6mer-2-277 (RLRYRK) | 128
70 | 6mer-2-206 (KWQYKK) | 148
71 | 6mer-2-323 (KVLLRK) | 145

Same assay, conditions: SPR, peptides at 10 μM; 6mer-2 Bottom sequence

Row | Substance | Binding affinity [Ru]
72 | 6mer-2-1031 (RAWERK) | 33
73 | 6mer-2-1141 (KCTGKR) | 32
74 | 6mer-2-1084 (REKPRK) | 29
75 | 6mer-2-998 (KEMWKK) | 43
76 | 6mer-2-1004 (RDTHKR) | 38
77 | 6mer-2-1119 (KCTVRK) | 39
78 | 6mer-2-1040 (KYAWRK) | 36
79 | 6mer-2-1012 (KASAKK) | 30
80 | 6mer-2-1071 (RTTWRK) | 25
81 | 6mer-2-1049 (KMSPRR) | 26

Same assay, conditions: SPR, peptides tested at 10 μM; 5mer Top sequence

Row | Substance | Binding affinity [Ru]
82 | 5mer-479 (RQYYK) | 70
83 | 5mer-500 (KSLQK) | 63
84 | 5mer-495 (KVVTK) | 52
85 | 5mer-415 (KVFLR) | 77
86 | 5mer-95 (RGRRK) | 68
87 | 5mer-21 (KWFTR) | 63
88 | 5mer-451 (RQVLK) | 53
89 | 5mer-6 (RWQQK) | 61
90 | 5mer-5 (KLFLR) | 54
91 | 5mer-79 (RWFLR) | 82
92 | 5mer-4 (KRFLR) | 58
93 | 5mer-52 (RQQYK) | 50
94 | 5mer-146 (RWFTK) | 52
95 | 5mer-46 (KRQCK) | 76
96 | 5mer-488 (KVRSR) | 58
97 | 5mer-144 (KRFSK) | 58
98 | 5mer-179 (RLYTK) | 55
99 | 5mer-398 (KGQCR) | 71
100 | 5mer-120 (RQILK) | 68

Same assay, conditions: SPR, peptides tested at 10 μM; 5mer Top sequence (top combinations)

Row | Substance | Binding affinity [Ru]
101 | 5mer-229 (KGLTR) | 84
102 | 5mer-223 (KQVRK) | 61
103 | 5mer-281 (RGFLK) | 58
104 | 5mer-286 (RWFQK) | 71
105 | 5mer-519 (RLYSK) | 72
106 | 5mer-577 (KLVTK) | 77
107 | 5mer-231 (KGLLK) | 60
108 | 5mer-541 (KVFLK) | 80
109 | 5mer-238 (KQVLK) | 58

Same assay, conditions: SPR, peptides tested at 10 μM; 6mer-1 Bottom sequence (Table 11)

Row | Substance | Binding affinity [Ru]
110 | 6mer-1-828 (RRPNMK) | 26
111 | 6mer-1-860 (RKHWWR) | 22
112 | 6mer-1-881 (KKHMER) | 20
113 | 6mer-1-830 (KKTTMK) | 33
114 | 6mer-1-900 (RRDTGR) | 24
115 | 6mer-1-867 (KRIPMR) | 25
116 | 6mer-1-843 (KKKTIK) | 28
117 | 6mer-1-925 (KKAMHR) | 42
118 | 6mer-1-955 (RKECFK) | 23
119 | 6mer-1-986 (KKAEEK) | 22
120 | 6mer-1-820 (KRNDGK) | 12
121 | 6mer-1-801 (KKCAVK) | 18

Same assay, conditions: SPR, peptides tested at 10 μM; 6mer-1 Top sequence

Row | Substance | Binding affinity [Ru]
122 | 6mer-1-529 (RRSLCK) | 139
123 | 6mer-1-561 (RKVYLK) | 131
124 | 6mer-1-406 (RKVLLR) | 153
125 | 6mer-1-572 (KRVLLK) | 126
126 | 6mer-1-461 (RRGYTR) | 142
127 | 6mer-1-573 (KRVLLR) | 126

Same assay, conditions: SPR, peptides tested at 10 μM; 6mer-1 Top sequence (top combinations)

Row | Substance | Binding affinity [Ru]
128 | 6mer-1-53 (KRVIQR) | 123
129 | 6mer-1-129 (RRRQSK) | 121
130 | 6mer-1-143 (KRGVLR) | 145

Same assay, conditions: SPR; XRRGVRR-7mer and RRGVRRX-7mer

Row | Substance | Binding affinity, values relative to the RRGVRR sequence
131 | 3654 (NRRGVRR) [compound 3654] | 109
132 | 3658 (HRRGVRR) [compound 3658] | 160
133 | 3647 (IRRGVRR) [compound 3647] | 126

Same assay, conditions: SPR; XRRQRR-6mer and RRQRRX-6mer

Row | Substance | Binding affinity, relative value to the RRQRR sequence
134 | 3615 (QRRQRR) [compound 3615] | 105
135 | 3633 (RRQRRY) [compound 3633] | 105
136 | 3603 (VRRQRR) [compound 3603] | 135
137 | 3616 (KRRQRR) [compound 3616] | 173

Same assay, conditions: SPR; peptides tested at 10 μM; 5mer Bottom sequence

Row | Substance | Binding affinity [Ru]
138 | 5mer-835 (RFMMR) | 14
139 | 5mer-888 (KKCIR) | 31
140 | 5mer-1119 (KMNIK) | 19
141 | 5mer-885 (RHCNR) | 19
142 | 5mer-1114 (RKTFR) | 28
143 | 5mer-891 (RKKMK) | 24
144 | 5mer-1148 (RDWFR) | 24
145 | 5mer-1188 (KPSGK) | 30
146 | 5mer-879 (KDCMK) | 13
147 | 5mer-837 (RPMDR) | 28
148 | 5mer-1136 (KNSAR) | 25
149 | 5mer-1169 (KDTPK) | 29
